In patent US20240376151A1, “STAPLED PEPTIDES AND METHODS THEREOF” (FOG PHARMACEUTICALS, INC., priority 2022, published 2024):

Molecular target: T1, RNF31 UBA domain (Homo sapiens, UniProt Q96EP0)
T1 construct: RNF31 UBA domain protein (residues 480-639) with N-terminal Thioredoxin-TEV-6×his-yBBr-3C tags; Thioredoxin (N, cleaved yes); made in house; host or cells: E. coli BL21 (DE3) pLysS
T1 sequence (Q96EP0 480-639): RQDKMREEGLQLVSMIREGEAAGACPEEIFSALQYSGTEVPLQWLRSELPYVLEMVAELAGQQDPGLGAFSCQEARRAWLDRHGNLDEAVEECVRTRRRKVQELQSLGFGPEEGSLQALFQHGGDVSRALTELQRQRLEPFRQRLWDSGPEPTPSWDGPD
Test: Phage Library Screening with NGS, RNF31 UBA domain
Format: binding
Details: for Phage library screen NGS readout, Target Concentration 10 / Phage library screen NGS readout, Target Concentration 30 / Phage library screen NGS readout, Target Concentration 100 / Phage library screen NGS readout, Target Concentration 300 / Phage library screen NGS readout, Target Concentration 1000: RNF31 UBA domain cluster C46; for Phage library screen NGS readout, BLANK: cluster C46; for phage screen NGS read-out at Target Concentration 10 / phage screen NGS read-out at Target Concentration 30 / phage screen NGS read-out at Target Concentration 100 / phage screen NGS read-out at Target Concentration 300: no competitor

[1] = target concentration 1000, first column
[2] = target concentration 1000, second column

Row | Sequence | Phage library screen NGS readout, Target Concentration 10 | Phage library screen NGS readout, Target Concentration 30 | Phage library screen NGS readout, Target Concentration 100 | Phage library screen NGS readout, Target Concentration 300 | Phage library screen NGS readout, Target Concentration 1000 [1] | Phage library screen NGS readout, Target Concentration 1000 [2] | Phage library screen NGS readout, BLANK (column 1 of 5) | Phage library screen NGS readout, BLANK (column 2 of 5) | Phage library screen NGS readout, BLANK (column 3 of 5) | Phage library screen NGS readout, BLANK (column 4 of 5) | Phage library screen NGS readout, BLANK (column 5 of 5) | phage screen NGS read-out at Target Concentration 10 | phage screen NGS read-out at Target Concentration 30 | phage screen NGS read-out at Target Concentration 100 | phage screen NGS read-out at Target Concentration 300
1 | DPALQSCLSAAVYCTVS | 0 | 0 | 6 | 10 | 9 | 10 | 0 | 0 | 0 | 0 | 0 |  |  |  | 
2 | DPALRTCLSAAVFCAVA | 0 | 6 | 10 | 18 | 15 | 25 | 0 | 0 | 1 | 0 | 1 |  |  |  | 
3 | DPALSQCVYAAVFCQNL |  |  |  |  |  |  |  |  |  |  |  | 0 | 2 | 0 | 4
4 | DPALSTCVYAAVMCQDV |  |  |  |  |  |  |  |  |  |  |  | 0 | 0 | 2 | 4
5 | DPALTHCTAAAYWCYVM |  |  |  |  |  |  |  |  |  |  |  | 0 | 0 | 0 | 2
6 | DPALTNCFSAAVYCAMF | 8 | 39 | 131 | 239 | 297 | 291 | 0 | 1 | 1 | 0 | 0 |  |  |  | 
7 | DPAMIQCLSAAVYCVHY |  |  |  |  |  |  |  |  |  |  |  | 1 | 3 | 8 | 
8 | DPAMYICEMAAANCLYQ |  |  |  |  |  |  |  |  |  |  |  | 0 | 1 | 1 | 6
9 | DPANEHCIAAAWWCQIL |  |  |  |  |  |  |  |  |  |  |  | 0 | 0 | 0 | 3
10 | DPAQLNCLSAAMYCALY | 2 | 19 | 49 | 95 | 104 | 111 | 0 | 0 | 1 | 0 | 0 |  |  |  | 
11 | DPAQMFCYSAAVYCAAF | 0 | 0 | 4 | 5 | 8 | 4 | 0 | 0 | 0 | 0 | 0 |  |  |  | 
12 | DPAQMSCFSAAVYCRLF | 0 | 0 | 11 | 10 | 10 | 17 | 0 | 0 | 0 | 0 | 0 |  |  |  | 
13 | DPAQNHCDSAAVFCYIL |  |  |  |  |  |  |  |  |  |  |  | 0 | 0 | 1 | 8
14 | DPAQQHCSAAAAWCVVL |  |  |  |  |  |  |  |  |  |  |  | 0 | 0 | 1 | 10
15 | DPAQQICLSAAVFCSIF |  |  |  |  |  |  |  |  |  |  |  | 0 | 0 | 4 | 10
16 | DPAQRDCFSAAVYCSFL |  |  |  |  |  |  |  |  |  |  |  |  | 210 | 40 | 88
17 | DPAQRQCLSAAVFCATL | 3 | 24 | 137 |  | 292 | 319 | 0 | 1 | 1 | 0 | 1 |  |  |  | 
18 | DPAQRQCLSAAVWCATF | 10 | 57 | 121 | 199 | 201 | 203 | 1 | 0 | 2 | 1 | 0 |  |  |  | 
19 | DPAQVHCRSAAAWCILM |  |  |  |  |  |  |  |  |  |  |  | 0 | 0 | 0 | 2
20 | DPAQWVCHMAAMNCLYQ |  |  |  |  |  |  |  |  |  |  |  | 0 | 1 | 0 | 4
21 | DPAREHCAAAATWCOLL (DPAREHCAAAATWCQLL) |  |  |  |  |  |  |  |  |  |  |  | 1 | 0 | 1 | 28
22 | DPAREHCDSAAAWCWVL |  |  |  |  |  |  |  |  |  |  |  | 0 | 0 | 1 | 4
23 | DPAREHCDSAAIFCYIL |  |  |  |  |  |  |  |  |  |  |  | 0 | 0 | 1 | 14
24 | DPARWVCELAAQNCLYR |  |  |  |  |  |  |  |  |  |  |  | 0 | 1 | 1 | 1
